In US20220119522A1:
Substitutions are numbered along the chain they refer to.

B1: CL0020201 (antibody, V domains shown)
VH: EVQLQQSGPVLVKPGASVRMSCKPSGYTFTDYYMNWVKQSHGKSLEWIGSINPYTGGSSYNQNFRGKATLTVDKSSSTAYMELNSLTSEDSAVYYCARGSYYSNLGFAYWGQGTLVTVSA
VL: DVQLTQSPSFLTASPGETITINCRASKSISKYLAWYQEKPGKTNKLLISSGSTLQSGIPSRFSGSGSGTDFTLTISSLEPEDFAMYYCQQYSEYPFTFGSGTKLEIK
B2: CL0020313 (antibody, V domains shown)
VH: QVQLKQSGPGLLQPSQSLSITCTVSGFSLTSYGVHWVRQSPGKGLEWLGVIWSGGITLYNAAFMSRLSITKDNSKSQVFFKMNSLQADDTAIYYCAKVGYGSSSDYWGQGTTLTVSS
VL: DVLMTQSPLSLPVSLGDQASFSCRSSQSIVHSNGNTYLEWYLQKPGQSPKLLIYKVSNRFSGVPDRFSGSGSGTDFTLKISRVEAEDLGVYYCFQGSHVPFTFGSGTKLEIK
B3: CL0020186 (antibody, V domains shown)
VH: EVQLVESGGGLVQPGRSLKLSCPASGFTFSYYGMAWVRQAPTKGLEWVASISTGGGNTYYRDSVKGRFTISRDNAKNTLYLQMDSLRSEDTATYYCARGDIGTAYWFTYWGQGTLVTVSS
VL: NIQLTQSPSLLSASVGDRVTLSCKGSQNINNYLAWYQQKLGEAPKLLIYKTNSLLTGIPSRFSGSGSGTDYTLTISSLHSEDLATYYCYQYNNGWTFGGGTKLELK
B4: CL0020123 (antibody, V domains shown)
VH: EVQLQQSGAELVRSGASVKLSCTASGFSIEDFYIHWVKQRPEQGLEWIGWIDPENGDSKYAPKFQGKATMTADTSSNTAYLHLSSLTSEDTAVYYCHADHGNYGSTMDYWGQGTSVTVSS
VL: DIQMNQSPSSLSASLGDTVTITCHASQHINVWLSWYQQKPGDHPKLLIYKASNLHTGVPSRFSGSGSGTGFTLTISSLQPEDIATYYCQQGQTYPRTFGGGTKLEIK
B5: CL0020195 (antibody, V domains shown)
VH: EVQLVESGGGLVQPGRSMMLSCSASGFTFSNYHMAWVRQAPTTGLEWVASITTGSGNTYYRHSVKGRFTISRDNAKSTLYLQMDSLRSEDTASYYCARRWYGGYEGYYFDYWGQGVMVTVSS
VL: DIQMTQSPSLLSASVGDRVTLSCKAGQNVNNYLAWYQQKLGEAPKLLIYNANILQTGFPSRFSGTGSGTDFTLTISSLQPEDVATYFCQQYNSWTTFGGGTKLELK
B6: CL0020214 (antibody, V domains shown)
VH: QVRLQQSGAELVRPGSSVKLSCKASGYAFSSYWMNWVKQRPGQGLEWIGQIYPGDGDTNYNGNFKGKATLTADNSSSTAYMQLSSLTSEDSAVYFCARRRNGDFGDYAMDYWGQGTSVTVSS
VL: QIVLTQSPAIMSASPGEKVTISCSASSSVSYMCWYQQKPGSSPKPWIYRTSTLASGVPARFSGSGSGTSYSLTISSMEAADAATYYCQHYHSYPFTFGAGTKLELK
B7: CL0020173 (antibody, V domains shown)
VH: EVKLLESGGGLVQPGSSMRLSCAASGFTFTDFYMNWIRQPAGRAPEWLGFFRNIVDGYTTEYNPSVKGRFTISRDNTQNMLYLQMNTLRAEDTATYYCARSGYSSYIYGGTFAYWGQGTLVTVSS
VL: ETVMTQSPTSMSTSIGERVTLNCKASQSVGIHVDWYQQTPGQSPKLLIYGASNRHTGVPDRFTGSGFGRDFTLTISNVEAEDLAVYYCLQYGSIPWTFGGGTKLELK
B8: CL0020120 (antibody, V domains shown)
VH: EVQLQQSGPELVRTGASVKISCRASSYSFTDNYIHWVKQTHGRSLEWIGYISGYTGATSYNQKFKGKATFTVDTSSSTAYMQFNSLTSEDSAVYYCARSTMIAPYGMDYWGQGTSVTVSS
VL: DIVMTQSHKFMSTSVGDRVNITCKASQDVVTAVAWYQQKPGQSPKLLIYWASTRHTGVPDRFTGSGSGTDFTLTISNVQSEDLADYFCQQYSRYPLTFGAGTKLELK
B9: CL0020206 (antibody, V domains shown)
VH: EVQLQQSGPVLVKPGASVKMSCKASGYTFTDYYMNWVKQSHGKSLEWIGIINPYSGGISYNQKFKGKAILTVDKSSSTAYMELNSLTSEASAVYYCTRRNWDGRYAMDYWGQGTSVTVSS
VL: B8 VL with N20S, C23Y, V30G, T31S, A51T, R93S, L96F, A100G, L106I
B10: CL0020127 (antibody, V domains shown)
VH: B9 VH with T28K, I50T, I69T
VL: B8 VL with N20S, V30S, D85E, R93S, L96F, A100G, L106I
B11: CL0020109 (antibody, V domains shown)
VH: EVQLQQSGPVLVKPGASLKMSCRASGYTFTDYYVHWVKQSHGKSLEWIGLINPYTGTTSYNQRFKGKATLTVDKSSSTAYMEVNSLTSEDSAVYYCARSRVYYGSSLFAFWGQGTLVTVSA
VL: DIVMTQSPSSLSVSAGEKVTMSCKSSQSLLNSGNQKNYLAWYQQKPGQPPKLLIYGASTRESGVPDRFTGSGSGTDFTLTISSVQAEDLAVYYCQNDHSYPYTFGGGTKLEIK
B12: CL0020205 (antibody, V domains shown)
VH: B11 VH with L18V, R23K, K65R, G66V
VL: B11 VL
B13: CL0020161 (antibody, V domains shown)
VH: EVQLVESGGGLVQPGRSMKLSCAALGFTFSNYYMAWVRQAPRKGLEWVASISTGGDNTYYRDSVKGRFTISRDNAKSTLYMQMDSLRSEDTATYYCVRSFIVGTTGYYFDYWGQGVMVTVSS
VL: DIVLTQSPALAVSLGQRATISCKTNQNVDYYGNNYMHWYQQTPGQQPKLLIYFASNLASGIPARFSGRGSGTDFTLTIDPVEADDTATYYCQQSRNLPTFGGGTKLELK
B14: CL0020215 (antibody, V domains shown)
VH: QVQLQQPGAELVKPGASVKMSCKASGYTFTNYWIMWVKQRPGQGLEWIGDIYPSSGSTNYNEKFKNRATLTVDTSSNTAYMQLSSLTSEDSAVYFCSREGYGISAWGQGTTLTVSS
VL: QIVLTQSPAIMSASPGEKVTITCSASSSVSYMHWFQQKPGTSPKLWIYSTSNLASGVPARFSGSGSGTSCSLTISRMEAEDAATYYCQQRSSFPLTFGAGTKLELK
B15: CL0020111 (antibody, V domains shown)
VH: B14 VH with E10D, M35T, K38Q, S54G, S57N, K65R, N66S, R67K, F95Y
VL: B14 VL with I10F, S24R, Y48F, C70H, S92G, F93Y

target: mouse TREM2 truncated stalk peptide (aa 149-163) (mouse) (UniProt Q99NH8); experiment: ELISA on biotinylated peptide captured by streptavidin; A450 normalised to isotype control

fold over background (A450) [fold]	Binder
1.8	B1
1.1	B2
1.3	B3
0.9	B4
1.2	B5
1.3	B6
1.2	B7
1.2	B8
1.6	B9
1.2	B10
1.7	B11
1.1	B12
1.1	B13
1.2	B14
1.5	B15
